Experimental findings from paper PMC3499988 (Biochemistry, 2011) are described below.

Holding throughout (assay): SPR
In general terms: Surface plasmon resonance follows binding to a sensor surface in real time, without labels.

The target in assay [1] is T1, HIV-1 YU-2 gp120 (HIV-1 (YU-2), UniProt P35961).
Assay [2] addresses T1, HIV-1 YU-2 gp120. The source holds these as a separate data set.
Assay [3] deals with T1, HIV-1 YU-2 gp120. The source holds these as a separate data set.

Where two headings read alike, the source gives them in different places.

B1: Fab m18 Y33F (HCDR1) (Fab, V domains shown)
VH: VQLLESGPGVVKPSETLSLTCTVSGASVNNYFWTWVRQPPGKGLEWIGNVYDSGDTNYNPSLSSRLSLSMDTSKNQFSLRLSSVTAADTATYYCARYHRHFIRGPLSFDYWGRGTLVTVSS
VL: LQMTQSPSFLSASVGDRVSITCRASQDIQKFLAWYQLTPGDAPKLLMYSASTLQSGVPSRFSGSGSGTEFTLTISGLQPEDFATYYCQHLKRYPYTFGQGTKLEIS
For the molecule B1, in the assay with HIV-1 YU-2 gp120 [1], the IC50 (in general, the concentration needed to halve the response being measured) was > 1000 nM. Further, in the assay with HIV-1 YU-2 gp120 [2], the Kd (in general, the free concentration of one partner at which half of the binding sites on the other are occupied at equilibrium, for simple one-to-one binding) stood at 56.3 nM; the koff (usually the first-order rate constant of dissociation) amounted to 0.0024 ± 0.8 s⁻¹; the kon (in general, the second-order rate constant of association) is 42000 ± 1.9 M⁻¹ s⁻¹. Also, the IC50 in the assay with HIV-1 YU-2 gp120 [3] is > 1000 nM.

B2: Fab m18 S62A (HCDR2) (Fab, V domains shown)
VH: VQLLESGPGVVKPSETLSLTCTVSGASVNNYYWTWVRQPPGKGLEWIGNVYDSGDTNYNPALSSRLSLSMDTSKNQFSLRLSSVTAADTATYYCARYHRHFIRGPLSFDYWGRGTLVTVSS
VL: LQMTQSPSFLSASVGDRVSITCRASQDIQKFLAWYQLTPGDAPKLLMYSASTLQSGVPSRFSGSGSGTEFTLTISGLQPEDFATYYCQHLKRYPYTFGQGTKLEIS
For the molecule B2, the 50% inhibitory concentration (IC50) with HIV-1 YU-2 gp120 [1] was > 1000 nM. In the assay with HIV-1 YU-2 gp120 [2], binding was put at a Kd of 44.2 nM, the off-rate (koff) was 0.0016 ± 0.4 s⁻¹ and the kon turned out to be 35000 ± 0.9 M⁻¹ s⁻¹. In addition, the IC50 with HIV-1 YU-2 gp120 [3] is > 1000 nM.

B3: Fab m18 S65A (HCDR2) (Fab, V domains shown)
VH: VQLLESGPGVVKPSETLSLTCTVSGASVNNYYWTWVRQPPGKGLEWIGNVYDSGDTNYNPSLSARLSLSMDTSKNQFSLRLSSVTAADTATYYCARYHRHFIRGPLSFDYWGRGTLVTVSS
VL: LQMTQSPSFLSASVGDRVSITCRASQDIQKFLAWYQLTPGDAPKLLMYSASTLQSGVPSRFSGSGSGTEFTLTISGLQPEDFATYYCQHLKRYPYTFGQGTKLEIS
As for B3, the IC50 with HIV-1 YU-2 gp120 [1] was > 1000 nM. In the assay with HIV-1 YU-2 gp120 [2], this molecule yielded a Kd of 39.1 nM, a koff of 0.0014 ± 0.2 s⁻¹ and a kon of 36000 ± 1.2 M⁻¹ s⁻¹. Moreover, in the assay with HIV-1 YU-2 gp120 [3], the IC50 is > 1000 nM.

B4: Fab m18 S64A (HCDR2) (Fab, V domains shown)
VH: VQLLESGPGVVKPSETLSLTCTVSGASVNNYYWTWVRQPPGKGLEWIGNVYDSGDTNYNPSLASRLSLSMDTSKNQFSLRLSSVTAADTATYYCARYHRHFIRGPLSFDYWGRGTLVTVSS
VL: LQMTQSPSFLSASVGDRVSITCRASQDIQKFLAWYQLTPGDAPKLLMYSASTLQSGVPSRFSGSGSGTEFTLTISGLQPEDFATYYCQHLKRYPYTFGQGTKLEIS
In the case of B4, in the assay with HIV-1 YU-2 gp120 [1], the IC50 was > 1000 nM. In the assay with HIV-1 YU-2 gp120 [2], this molecule returned a Kd of 40 nM, a dissociation rate constant (koff) of 0.00086 ± 5.9 s⁻¹ and a kon of 21000 ± 0.7 M⁻¹ s⁻¹. Besides, in the assay with HIV-1 YU-2 gp120 [3], the IC50 is > 1000 nM.

B5: Fab m18 D56A (HCDR2) (Fab, V domains shown)
VH: VQLLESGPGVVKPSETLSLTCTVSGASVNNYYWTWVRQPPGKGLEWIGNVYDSGATNYNPSLSSRLSLSMDTSKNQFSLRLSSVTAADTATYYCARYHRHFIRGPLSFDYWGRGTLVTVSS
VL: LQMTQSPSFLSASVGDRVSITCRASQDIQKFLAWYQLTPGDAPKLLMYSASTLQSGVPSRFSGSGSGTEFTLTISGLQPEDFATYYCQHLKRYPYTFGQGTKLEIS
For B5, the concentration for half-maximal inhibition (IC50) with HIV-1 YU-2 gp120 [1] was > 1000 nM. In the assay with HIV-1 YU-2 gp120 [2], this molecule came in with a Kd of 26.2 nM, a koff of 0.00061 ± 4.5 s⁻¹ and a kon of 25000 ± 0.6 M⁻¹ s⁻¹. The IC50 with HIV-1 YU-2 gp120 [3] was > 1000 nM.

B6: Fab m18 S54A (HCDR2) (Fab, V domains shown)
VH: VQLLESGPGVVKPSETLSLTCTVSGASVNNYYWTWVRQPPGKGLEWIGNVYDAGDTNYNPSLSSRLSLSMDTSKNQFSLRLSSVTAADTATYYCARYHRHFIRGPLSFDYWGRGTLVTVSS
VL: LQMTQSPSFLSASVGDRVSITCRASQDIQKFLAWYQLTPGDAPKLLMYSASTLQSGVPSRFSGSGSGTEFTLTISGLQPEDFATYYCQHLKRYPYTFGQGTKLEIS
Take B6: the IC50 with HIV-1 YU-2 gp120 [1] is > 1000 nM. Besides, in the assay with HIV-1 YU-2 gp120 [2], binding was characterised by a dissociation constant (Kd) of 56.4 nM, the koff stood at 0.0022 ± 0.7 s⁻¹ and the kon stood at 39000 ± 0.5 M⁻¹ s⁻¹. In addition, in the assay with HIV-1 YU-2 gp120 [3], the concentration for half-maximal inhibition (IC50) is > 1000 nM.

B7: Fab m18 T57A (HCDR2) (Fab, V domains shown)
VH: VQLLESGPGVVKPSETLSLTCTVSGASVNNYYWTWVRQPPGKGLEWIGNVYDSGDANYNPSLSSRLSLSMDTSKNQFSLRLSSVTAADTATYYCARYHRHFIRGPLSFDYWGRGTLVTVSS
VL: LQMTQSPSFLSASVGDRVSITCRASQDIQKFLAWYQLTPGDAPKLLMYSASTLQSGVPSRFSGSGSGTEFTLTISGLQPEDFATYYCQHLKRYPYTFGQGTKLEIS
On to B7, for which the IC50 with HIV-1 YU-2 gp120 [1] worked out at 16.8 ± 3.8 nM. In the assay with HIV-1 YU-2 gp120 [2], this molecule returned a Kd of 2.5 nM, a koff of 0.00021 ± 0.4 s⁻¹ and a kon of 84000 ± 2 M⁻¹ s⁻¹. In the assay with HIV-1 YU-2 gp120 [3], this molecule had an IC50 of 33.1 ± 8 nM.

B8: Fab m18 H96A (HCDR3) (Fab, V domains shown)
VH: VQLLESGPGVVKPSETLSLTCTVSGASVNNYYWTWVRQPPGKGLEWIGNVYDSGDTNYNPSLSSRLSLSMDTSKNQFSLRLSSVTAADTATYYCARYARHFIRGPLSFDYWGRGTLVTVSS
VL: LQMTQSPSFLSASVGDRVSITCRASQDIQKFLAWYQLTPGDAPKLLMYSASTLQSGVPSRFSGSGSGTEFTLTISGLQPEDFATYYCQHLKRYPYTFGQGTKLEIS
Take B8: the IC50 with HIV-1 YU-2 gp120 [1] was > 500 nM. In the assay with HIV-1 YU-2 gp120 [2], this molecule showed a Kd of 11.7 nM, a koff of 0.0011 ± 0.6 s⁻¹ and a kon of 93000 ± 2.9 M⁻¹ s⁻¹. Also, the IC50 with HIV-1 YU-2 gp120 [3] is > 500 nM.

B9: Fab m18 R100aA (HCDR3) (Fab, V domains shown)
VH: VQLLESGPGVVKPSETLSLTCTVSGASVNNYYWTWVRQPPGKGLEWIGNVYDSGDTNYNPSLSSRLSLSMDTSKNQFSLRLSSVTAADTATYYCARYHRHFIAGPLSFDYWGRGTLVTVSS
VL: LQMTQSPSFLSASVGDRVSITCRASQDIQKFLAWYQLTPGDAPKLLMYSASTLQSGVPSRFSGSGSGTEFTLTISGLQPEDFATYYCQHLKRYPYTFGQGTKLEIS
For the molecule B9, in the assay with HIV-1 YU-2 gp120 [1], the IC50 is > 500 nM. Besides, in the assay with HIV-1 YU-2 gp120 [2], binding was put at a Kd of 2.3 nM, the off-rate (koff) amounted to 7.6e-05 s⁻¹ and the kon stood at 34000 ± 0.9 M⁻¹ s⁻¹. For the same molecule, the IC50 with HIV-1 YU-2 gp120 [3] was > 500 nM.

B10: Fab m18 D53A (HCDR2) (Fab, V domains shown)
VH: VQLLESGPGVVKPSETLSLTCTVSGASVNNYYWTWVRQPPGKGLEWIGNVYASGDTNYNPSLSSRLSLSMDTSKNQFSLRLSSVTAADTATYYCARYHRHFIRGPLSFDYWGRGTLVTVSS
VL: LQMTQSPSFLSASVGDRVSITCRASQDIQKFLAWYQLTPGDAPKLLMYSASTLQSGVPSRFSGSGSGTEFTLTISGLQPEDFATYYCQHLKRYPYTFGQGTKLEIS
Regarding B10, the IC50 in the assay with HIV-1 YU-2 gp120 [1] was > 500 nM. In the assay with HIV-1 YU-2 gp120 [2], the Kd stood at 7 nM, the koff came to 0.00012 ± 1.1 s⁻¹ and the on-rate constant (kon) worked out at 16000 ± 1.3 M⁻¹ s⁻¹. For the same molecule, the IC50 with HIV-1 YU-2 gp120 [3] was > 500 nM.

B11: Fab m18 P61A (HCDR2) (Fab, V domains shown)
VH: VQLLESGPGVVKPSETLSLTCTVSGASVNNYYWTWVRQPPGKGLEWIGNVYDSGDTNYNASLSSRLSLSMDTSKNQFSLRLSSVTAADTATYYCARYHRHFIRGPLSFDYWGRGTLVTVSS
VL: LQMTQSPSFLSASVGDRVSITCRASQDIQKFLAWYQLTPGDAPKLLMYSASTLQSGVPSRFSGSGSGTEFTLTISGLQPEDFATYYCQHLKRYPYTFGQGTKLEIS
Turning to B11, in the assay with HIV-1 YU-2 gp120 [1], the IC50 is > 1000 nM. In the assay with HIV-1 YU-2 gp120 [2], the Kd is 19.3 nM, the koff was found to be 0.00063 ± 1 s⁻¹ and the kon is 33000 ± 1 M⁻¹ s⁻¹. Further, the IC50 with HIV-1 YU-2 gp120 [3] was > 1000 nM.
